Experimental data reported in article PMC5663475, “SAV1 promotes Hippo kinase activation through antagonizing the PP2A phosphatase STRIPAK” (eLife, 2017).

B1: Myc-SAV1 SARAH (residues 321–383) wild type [modified: 35S-methionine labelled; 35S-methionine labelled] [human] / GST-MST2 SARAH (residues 430–491) [human] (parent complex)
chain 1: ILKWELFQLADLDTYQGMLKLLFMKELEQIVKMYEAYRQALLTELENRKQRQQWYAQQHGKNF
chain 2: KVPQDGDFDFLKNLSLEELQMRLKALDPMMEREIEELRQRYTAKRQPILDAMDAKKRRQQNF

Variants of: B1
Test: GST pull-down of in vitro translated 35S-labeled Myc-SAV1 SARAH, quantified; read off a plot

Variant	ratio to parent
chain 1 L45A	~0.06
chain 1 R48A	~0.03
chain 1 L42A	~0.2
chain 1 L41A	~0.01
chain 1 Y34A	~0.36
chain 1 Q16A	~0.4

More lines, now with the values ahead:

ratio to parent	Variant
~0.7	chain 1 L27A
~0.03	chain 1 R38A
~0.9	chain 1 T14A
~0.02	chain 1 E26A
~0.53	chain 1 V31A
~0.04	chain 1 Y37A
~0.04	chain 1 I30A
